Patent US20220001039A1, “COMPOSITIONS AND METHODS FOR DETECTING ACE2 EXPRESSION PROFILES” (Washington University, priority 2020, published 2022)
Read-outs that look alike come from different tables or passages of the source.

Legend:
ACE2 [1] = target: T1, ACE2 (Homo sapiens, UniProt Q9BYF1); set-up: from tissue; host or cells: organs of hACE2 transgenic mice, imaged in vivo by PET; species or system mice; conditions: mouse, in vivo
From the text: PET images were reconstructed by an iterative three-dimensional maximum a priori algorithm.

HEK293-hACE2 xenografts = tested on: HEK293-hACE2 xenografts; set-up: species or system mice; conditions: mouse, in vivo
Procedure: Tumors were monitored and imaging commenced after reaching >200 mm3. […] PET images were reconstructed by an iterative three-dimensional maximum a priori algorithm. […] At 1, 4, and 20 h post-injection, the animals were sacrificed for tissue dissection. The organs of interest were collected, rinsed, blotted, weighed, and counted with a γ-counter (Perkin Elmer Wizard2). The total injected radioactivity per animal was determined from the measured radioactivity in an aliquot of the injectate. Data were expressed as a percent of injected activity per gram of tissue (% IA/g).

[2] = in vivo
From the text: Ex vivo biodistribution analysis of the tracer in these hACE2 expressing (and vehicle control) tumors recapitulated these imaging findings (FIG. 5A).

[3] = type: physicochemical
Procedure: The solution was analyzed by radio-HPLC to assess the radiochemical purity. The HPLC was eluted with water-CH3CN system (Phase A: 0.1% TFA H2O; Phase B: 0.1% TFA CH3CN) using gradient elution (0-5 min 20% B; 5-10 min 20%-80% B; 10-12 min 80% B; 12-15 min 80%-20% B) at a flow rate of 1.0 mL/min. The radiolabeling yield was 59.9±3.9% (non-decay corrected, n=10) and the radiochemical purity was over 95%. […] At 1 h, 2 h, and 4 h time points, 10 μL aliquot was analyzed by radio-HPLC to assess the radiochemical purity.

clinical = conditions: human, in vivo, iv, total radioactivity, SUVmax
ACE2 [4] = target: T1, ACE2; conditions: in vivo
ACE2 [5] = target: T1, ACE2; test: 68Ga-HZ20 PET/CT in healthy volunteers (SUVmax)
[6] = Acute toxicity test / body weight monitoring in mice; type: in vivo
Procedure: The experiment was carried out in 10 mice at 4-weeks of age. […] The injection was repeated on day 0, day 4, day 11, day 18 and day 25, and the weight of the mice was recorded.

ACE2 [7] = target: T1, ACE2; conditions: in vivo; remark: listed apart in the source
[8] = healthy volunteers average, 90 min

T1 sequence (Q9BYF1 18-805): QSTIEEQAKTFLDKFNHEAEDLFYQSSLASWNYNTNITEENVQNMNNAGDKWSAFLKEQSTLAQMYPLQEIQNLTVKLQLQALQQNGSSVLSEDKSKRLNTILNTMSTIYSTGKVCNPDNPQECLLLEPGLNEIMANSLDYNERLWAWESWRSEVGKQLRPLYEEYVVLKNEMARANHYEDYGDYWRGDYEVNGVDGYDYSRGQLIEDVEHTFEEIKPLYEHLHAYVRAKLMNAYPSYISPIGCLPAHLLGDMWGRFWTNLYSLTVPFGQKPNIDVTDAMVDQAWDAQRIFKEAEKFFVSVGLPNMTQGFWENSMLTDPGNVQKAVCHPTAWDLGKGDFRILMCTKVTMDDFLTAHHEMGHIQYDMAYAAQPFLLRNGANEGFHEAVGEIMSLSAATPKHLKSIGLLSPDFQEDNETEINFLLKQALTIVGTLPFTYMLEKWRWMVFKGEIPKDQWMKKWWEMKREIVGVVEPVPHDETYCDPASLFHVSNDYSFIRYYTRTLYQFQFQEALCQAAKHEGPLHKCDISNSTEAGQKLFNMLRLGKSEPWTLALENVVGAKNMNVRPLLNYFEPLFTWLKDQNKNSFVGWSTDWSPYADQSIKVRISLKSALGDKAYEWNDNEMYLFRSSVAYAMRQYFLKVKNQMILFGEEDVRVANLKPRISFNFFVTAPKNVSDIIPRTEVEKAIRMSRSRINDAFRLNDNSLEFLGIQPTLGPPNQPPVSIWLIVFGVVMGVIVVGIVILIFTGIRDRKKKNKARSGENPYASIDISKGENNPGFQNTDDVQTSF

Compound: CC(C)C[C@@H]1NC(=O)[C@@H]2CCCN2C(=O)[C@H](CO)NC(=O)[C@@H](NC(=O)[C@H](Cc2c[nH]cn2)NC(=O)[C@H](CO)NC(=O)[C@H](Cc2ccc(O)cc2)NC(=O)[C@H](CC(=O)O)NC(=O)CNC(=O)CCC(C(=O)O)N2CCN(CC(=O)O)CCN(CC(=O)O)CC2)CSSC[C@@H](C(=O)N[C@H](C(=O)N[C@@H](Cc2ccc(O)cc2)C(=O)N2CCC[C@H]2C(=O)N[C@@H](CC(=O)O)C(=O)N2CCC[C@H]2C(=O)N[C@@H](CCC(=O)O)C(=O)NCC(=O)NCC(=O)NCC(N)=O)[C@@H](C)O)NC(=O)[C@H](CCCCN)NC(=O)[C@H](Cc2c[nH]c3ccccc23)NC(=O)[C@H](Cc2c[nH]c3ccccc23)NC(=O)[C@@H]2CCCN2C(=O)[C@H](Cc2ccc(O)cc2)NC(=O)[C@H](Cc2ccc(O)cc2)NC(=O)[C@H](CCCNC(=N)N)NC1=O (stereo partly shown) [64Cu-HZ20, metal not drawn]
- accumulation in hACE2 transgenic mice compared to wild-type strain (ACE2 [1]): significantly higher accumulation in the heart, lung, liver, and intestine
- clearance from the blood pool (HEK293-hACE2 xenografts): rapid
- hACE2 tumor binding (HEK293-hACE2 xenografts): Greater hACE2 tumor binding
- kidney clearance (HEK293-hACE2 xenografts): greater kidney clearance
- signal distribution by PET (HEK293-hACE2 xenografts): highest signal in the kidneys, high intensity in HEK293-hACE2 xenografts, and moderate in liver
- tissue retention by imaging or organ counting [2]: limited or very low tissue retention

Compound: CC(C)C[C@H](NC(=O)[C@@H]1CCCN1C(=O)[C@H](CO)NC(=O)[C@H](CS)NC(=O)[C@H](Cc1c[nH]cn1)NC(=O)[C@H](CO)NC(=O)[C@H](Cc1ccc(O)cc1)NC(=O)[C@H](CC(=O)O)NC(=O)CNC(=O)CCC(C(=O)O)N1CCN(CC(=O)O)CCN(CC(=O)O)CC1)C(=O)N[C@@H](CCCNC(=N)N)C(=O)N[C@@H](Cc1ccc(O)cc1)C(=O)N[C@@H](Cc1ccc(O)cc1)C(=O)N1CCC[C@H]1C(=O)N[C@@H](Cc1c[nH]c2ccccc12)C(=O)N[C@@H](Cc1c[nH]c2ccccc12)C(=O)N[C@@H](CCCCN)C(=O)N[C@@H](CS)C(=O)N[C@H](C(=O)N[C@@H](Cc1ccc(O)cc1)C(=O)N1CCC[C@H]1C(=O)N[C@@H](CC(=O)O)C(=O)N1CCC[C@H]1C(=O)N[C@@H](CCC(=O)O)C(=O)NCC(=O)NCC(=O)NCC(N)=O)[C@@H](C)O (stereo partly shown) [64Cu-HZ-19, metal not drawn]
- clearance from the blood pool (HEK293-hACE2 xenografts): rapid
- liver retention (HEK293-hACE2 xenografts): increased liver retention

Compound: CC(C)C[C@@H]1NC(=O)[C@@H]2CCCN2C(=O)[C@H](CO)NC(=O)[C@@H](NC(=O)[C@H](Cc2c[nH]cn2)NC(=O)[C@H](CO)NC(=O)[C@H](Cc2ccc(O)cc2)NC(=O)[C@H](CC(=O)O)NC(=O)CNC(=O)CN2CCN(CC(=O)O)CCN(CC(=O)O)CCN(CC(=O)O)CC2)CSSC[C@@H](C(=O)N[C@H](C(=O)N[C@@H](Cc2ccc(O)cc2)C(=O)N2CCC[C@H]2C(=O)N[C@@H](CC(=O)O)C(=O)N2CCC[C@H]2C(=O)N[C@@H](CCC(=O)O)C(=O)NCC(=O)NCC(=O)NCC(N)=O)[C@@H](C)O)NC(=O)[C@H](CCCCN)NC(=O)[C@H](Cc2c[nH]c3ccccc23)NC(=O)[C@H](Cc2c[nH]c3ccccc23)NC(=O)[C@@H]2CCCN2C(=O)[C@H](Cc2ccc(O)cc2)NC(=O)[C@H](Cc2ccc(O)cc2)NC(=O)[C@H](CCCNC(=N)N)NC1=O [68Ga-HZ20, metal not drawn]
- stability [3]: stable within 2 h
- SUV at 1.5 h (clinical; both, gallbladder): 2.14 ± 0.16 SUV
- SUV (clinical; both, other organs (relatively low uptake)): < 1.5 SUV
- SUV (clinical; both, renal cortex, corpus luteum, and testis (high uptake)): > 2.5 SUV
- SUV (clinical; female, breast, gallbladder, ovary, nasal mucosa, and esophagus (median uptake)): 1.5 SUV
- SUV (clinical; male, conjunctiva): 1.5 SUV
- SUVmax difference right minus left, confidence interval, eyes (ACE2 [4]): −0.09 to 0.10
- SUVmax difference right minus left, confidence interval, lungs (ACE2 [4]): −0.02 to 0.10
- SUVmax difference right minus left, confidence interval, renal cortex (ACE2 [4]): 3.77 to 10.90
- SUVmax difference right minus left, confidence interval, testis (ACE2 [4]): −0.38 to 0.25
- SUVmax, breast (ACE2 [4]): 2.72
- SUVmax, lung (ACE2 [4]): only low SUVmax
- SUVmax, small intestine (ACE2 [4]): 0.48
- SUVmax, testis (ACE2 [4]): 5.57
- blood-brain barrier penetration (ACE2 [4]): poor blood-brain barrier penetration
- SUVmax, breast, young group (ACE2 [5]; female volunteers <50 years, 90 min): 2.21±0.25
- SUVmax, breast, old group (ACE2 [5]; female volunteers ≥50 years, 90 min): 1.35±0.22
- SUVmax, ovary (ACE2 [5]; healthy females, 90 min): 2.12±1.42
- SUVmax, uterus (ACE2 [5]; healthy females, 90 min): 2.41±0.34
- SUVmax, testis (ACE2 [5]; healthy males, 90 min): 4.46±0.30
- SUVmax, left testis (ACE2 [5]; healthy volunteers): 4.58±0.40
- SUVmax, renal cortex, left kidney (ACE2 [5]; healthy volunteers): 22.18±1.78
- SUVmax, renal cortex, right kidney (ACE2 [5]; healthy volunteers): 25.67±1.39
- SUVmax, right testis (ACE2 [5]; healthy volunteers): 4.51±0.54
- SUVmax, conjunctiva (ACE2 [5]; [8]): 1.71±0.08
- SUVmax, esophagus (ACE2 [5]; [8]): 1.63±0.11
- SUVmax, liver (ACE2 [5]; [8]): 1.59±0.14
- SUVmax, pancreas (ACE2 [5]; [8]): 1.63±0.24
- SUVmax, rectum (ACE2 [5]; [8]): 1.46±0.13
- SUVmax, renal cortex (ACE2 [5]; [8]): 25.67±1.39
- SUVmax, renal medulla (ACE2 [5]; [8]): 18.34±1.42
- acute toxicity test ([6]; mouse, in vivo): well tolerated
- SUVmax, gallbladder (ACE2 [7]): 4.32
- SUVmax, left testis (ACE2 [7]): 8.65
- SUVmax, renal cortex (ACE2 [7]): 18.40
- SUVmax, renal cortex, left kidney (ACE2 [7]): 11.59
- SUVmax, renal cortex, right kidney (ACE2 [7]): 18.40
- SUVmax, right testis (ACE2 [7]): 8.79

Compound: CC(=O)NCC(=O)N[C@@H](CC(=O)O)C(=O)N[C@@H](Cc1ccc(O)cc1)C(=O)N[C@@H](CO)C(=O)N[C@@H](Cc1cnc[nH]1)C(=O)N[C@H]1CSSC[C@@H](C(=O)N[C@H](C(=O)N[C@@H](Cc2ccc(O)cc2)C(=O)N2CCC[C@H]2C(=O)N[C@@H](CC(=O)O)C(=O)N2CCC[C@H]2C(=O)N[C@@H](CCC(=O)O)C(=O)NCC(=O)NCC(=O)NCC(N)=O)[C@@H](C)O)NC(=O)[C@H](CCCCN)NC(=O)[C@H](Cc2c[nH]c3ccccc23)NC(=O)[C@H](Cc2c[nH]c3ccccc23)NC(=O)[C@@H]2CCCN2C(=O)[C@H](Cc2ccc(O)cc2)NC(=O)[C@H](Cc2ccc(O)cc2)NC(=O)[C@H](CCCNC(=N)N)NC(=O)[C@H](CC(C)C)NC(=O)[C@@H]2CCCN2C(=O)[C@H](CO)NC1=O [DX600]
- body weight, experimental group versus control group ([6]; 200 μg/200 μL on day 0, 4, 11, 18 and 25): no significant difference
- body weight, start of monitoring ([6]; experimental group n=5): 26.5 ± 5.2 g
- body weight, end of monitoring ([6]; experimental group n=5, 25 days): 41.2 ± 3.1 g
